The values below come from the DeepSol protein solubility set.

This data set can be described thus: soluble on expression in E. coli; label from the status in PepcDB or PDB records.
With “MSLNNMIQVAIIGAGFIGPAHLEALRRLGDVEVVALCDSRLEAAQRKARALNIAHAYDSVEALLAHPGLQVVHNCTPNHLHAQINRQILAAGLHVFSEKPLCMTAGEARELVALAARAGVVHGVSFVYRQFAMVQQAAAMIRHGEVGRIFAAHGSYLQDWMLLETDYNWRVDSAQGGASRTVADIGSHWCDTVQFMTGRRIVEVMADLSIVWPTRKAPVNGKATFSAVHEAQAYETRPVDTEDFGSVLLRFDDGSKGSFMVSQVSAGRKNRLAVEINGSLCSLAWDQEVPQRLWIGHREQPDRLLSDDPSLLRPEIADSAHYPGGHIEGWPDAFKNMMGHFYQAVRAGKMPAAGARRFAAFDDGADVMYIIEAIVKSHQEQRWVSVEREGHHHHHH”, the “soluble on expression in E. coli” value is “soluble”.

“MAHHHHHHMRVPSLPIIIDEFPALAGSRSHSGSGSGSELFFLTHFHTDHMKGLSSAWTAGLIITGTITRQLLLNKFEGLRGRVLGLPFWCRTPVLSAAGAAHSETDSTTATAVPVVHVTLLPAFHIPGSAMIYIETPSGVTYLHTGDFKYTEAAAQMSSLRTFFQSHRVDHLYLDDTWLHLGHTELKSWPALTESPLVGHRGVGIANSGIRVLSKLLDADQVEEAIEAIGRRMDYQRQLHAQWVQQQSQCDSNGTAEALTPSSSSSSASAELSDARLPFIVRVYLHNQFGKELLIQQLAARLRTRALIDDARYARLLTVVEALEEERDDLEAFEGADPARLDGAAPPLSAEELAWRASGGEAARYPYDLNCFVSCSQAQQQKQQQLWARWRYDRGAMSPQQPQPPADHSVKRSCGPPLIEVVRNRASIEPATLQAASAARGGTPYYGVVISGWARLQSQTHGPAASGQVWQVPTTLHSTPQEIVDFVALLRPLSVTPLHYRPSRGEVVMQRLGPYLRVPFVNNHDTGCGATTAATAGRDAVALRGGVVRWMPYLPAYLLLSQMGGSDSRSGLGTSTLLGMLGARDAAAVCDNGLDALEEKPPRGFRIRPAGLPLPSSKAAVAASRSGGEAPGGCDSHTAAITASYFFAPSPTTTTSLPAQGMADVSGKATNPTDTSVSSRVRADGLRISTLLPSWRLSHLTQSYLSTQQSGGKRERVDVEMDGQSMVAHRAERHAATATKIESGERAAKAANDHDKDCPAVLLSSSATTGLLSLSDIADNVLA”: the “soluble on expression in E. coli” value was “not soluble”.

“NDDIIVNWVNRTLSEAGKSTSIQSFKDKTISSSLAVVDLIDAIQPGCINYDLVKSGNLTEDDKHNNAKYAVSMARRIGARVYALPEDLVEVKPKMVMTVFACLMGRGMKRV”: the “soluble on expression in E. coli” value was “soluble”.

Consider “MIVRGGGDLATGVIQKLWHVGFKILVLETECPLAIRRTVSVCDAIFQKEQRVEDLVAVRITSLKDCAKCWQQNKLPVFVDQTASAIQQLKPLIVIDAILAKKNLGTHRGMAPITIALGPGFSAPQDVDVVIETMRGHRLGRLYFEGTALPNTGIPGEIGGKSAERVVHAPASGQVTHLKNIGDLVLKGEALFLIDQVPVYSPLTGTLRGLISEKVTCYQGLKCADVDPRPVEKVDCLTISDKARALGGAVLEAIFMIGRRKNVLLEHHHHHH”, for which the “soluble on expression in E. coli” value was “soluble”.

On to “MSFVVIIPARFSSTRLPGKPLVDINGKPMIVHVLERARESGAERIIVATDHEDVARAVEAAGGEVCMTRADHQSGTERLAEVVEKCGFSDDTVIVNVQGDEPMIPAVIIRQVAENLAQRQVGMATLAVPIHSAEEAFNPNAVKVVLDAEGYALYFSRATIPWDRDRFAKSLETVGDTCLRHLGIYGYRAGFIRRYVSWQPSPLEHIEMLEQLRVLWYGEKIHVAVAKAVPGTGVDTADDLERVRAEMR”, for which the “soluble on expression in E. coli” value was “not soluble”.

As to “MKEVPMILEICVDDVAGLEAAVRGGADRIELCAALSGGGVTPSAGFMQRAATYGLPVSVMIRPRAGDFVFTHDEADVMKRDIDAARAAGLSGVVLGASRGDGSLDMALLEDLRRHADGMDATLHRAFDVAPDMEEALEAAISLGFPRILTSGGARSALEGVKTLARLSELAKGRIVIMPGAGVRPQSVQALLDSFPITEIHASCSAVPLYDPESRVAKLGFTGAGRKATDEAAVRELKTILSAHHKGGATLLEHHHHHH”, the “soluble on expression in E. coli” value was “soluble”.

“MDVLEISKKILHEGPVCDHCMGRQFAKLSTGLSNRERGQAVKLALALEGDRIYKSENDDSLLKELAPCSALARKTLRIEGENEQCWVCLDQFKKLDFWAEEAAKALEGLEYSTFLVGTKVSGLLSENEEILWAEAGTAYAEQLKTELNREVGKRIAERVNKEVDFENPDIVITLDLATNKFELQVRSVYIYGRYLKKVRGIPQTRWPCRKCRGKGCEKCGFTGKQYPESVDELIKGPVVEAFEAVDTAFHGSGREDIDALMLGSGRPFVVEAKSPVKRSADLEALAAKINENAAGKVEVRDLRFVEKGMIETLKSSKADKTYKLKVTFKEPVSEEKLKSCLESLNGTEIAQQTPKRVVHRRADLIRKRYVHSITLNELTDDGYAYITVNCEGGLYVKELISGDEGRTNPSLTGLLGIPALVEDLDVVNVEILEHHHHHH”: the “soluble on expression in E. coli” value is “soluble”.

Turning to “MKIVRASRDQSAPVYGPRAGSQCMSNCFTFLHTCYLMGIDPVLDTTSLDAVLDSGARLDAIADEKVKRQALTDHPYRLGTEIPTVIETPAGITGHALSRPFNGTAETQDLGGYKCLGILDFLTYARGKPLPVYIIVTVGVHTRGVIVARGATYVFDPHTTDLSAEAAVYVCDDFTEAISALSFFTEMIGDFYYDAVLVYFTRCRTTLISPSELLVQIMDQYKDPDIDASVMS”, the “soluble on expression in E. coli” value is “soluble”.

Regarding “MEIIKIDSHKDIEQQEDSVLVLGYFDGLHRGHKELFNQAREIAQKMQLKIVVLTFPESPQLAFTRFEPDLLNHINYPEKRYCKFAEYGVDCLYLTDFTSSFAKISSDDFIKNYIKALKAKAVVMGFDYKFSHSKANSDYLKHHFAGQVITVPEVQYEGKKISSTRVRQLIKQGDMTQVNRLLGYEFSTRGIVVHGDARGRTIGFPTANLAPLDRTYLPADGVYVADVIVGRKRYRSMTSIGKNITFGGTELRLEANIFDFDDDIYGETIEIFWLNKIREMVKFNSVNDLVEQLKSDKEIAINWGKS”, the “soluble on expression in E. coli” value was “not soluble”.

With “MGSDKIHHHHHHMPTMIPAASRAMAVFEVFAREKRELSNSDMARLLSLPESSTSDLLHTLHSLGYLMRTTRTRRFYPTGRLSEIARQIAENDPLTTVAQEAIEQVSARTNESVFFGVLDGTAVKVMAVQASRLPLRYIIEVGYRAALHASALGKGLLGLLPPEEARETLAKSSLRAVTAHTVVDIDTLMAQVAKGRKRGWYEAHEEGSEGVHGLAVTGWLGGQAAGISLAGPAERMKKNHDAYLAALIEVRDALMSEE”, the “soluble on expression in E. coli” value is reported as “not soluble”.

For the sequence “MGSDKIHHHHHHMKTPWLVNGKLANLYLLYGTERHLLEEWEREIVKAALPDGERFDYMKIDLNDQPLDAVLDEAETVPFLSDYRVVIAKPATFLTGAKDKKTHNVERLAEYIVQPADYAVVVLIVEAEKLDERKTIVKRLKDRAVILEAKKPTTEELFRFVMDAVNDKGYRMERPAIERLIFLTGEMWATLTRELDKLMLYAGDHPTIELEDVNLLVPRTLEDNVFQLTDYLMKRQLEPAIRLIRDLEKQGQEVLALLGLMARQYRMMLLSKRLAEQGYGERQIASKVGAHPYAIKLALQAGKRFTFAQLEQALVAITTTDEGMKTGRGDKRILFDALIVRLATL”, the “soluble on expression in E. coli” value is on record as “not soluble”.

Consider “MGSDKIHHHHHHQQLLLIEKLDGTLEDYLFSDDFDEKVLLSCLFQISFSLHYLQKHYKFTHNDLHINNVMYSETTTKYLYYKFNNQYFKIPTYGKIFKIIDFGRSIFTYNNKIYMNDVFTKNSEAWGQFYYPPQVQFLTKPPEDIPNIEPNYNFDLCRLSMTIIEEIDKSKLSENMFNFLNDMCIDKFNENYCEMEDNFSLYINISKNAINSLPEDILNKTIFKQYKVIKKNFPSKLYYK”, for which the “soluble on expression in E. coli” value is “not soluble”.

Turning to “MGSDKIHHHHHHMSDWTDRLPEAARAYIADRRVDEVECILSDIAGVARGKAMPAFKFGKQTSFFLPNSIFLQTITGEWADNPSGAFTEPDMILIPDYSTATAAPWTADITLQVIHDAVDQQGRPVPVSPRNVLRRVVELYNAEGWTPIVAPEMEFFLVARNIDPNMPVMPPMGRTGRRAAAKQAYSMSAVDEYGKVIDDIYDFAEAQGFEIDGILQEGGAGQVEINLAHGDPVALADQIFFFKRLIREAALRHDCFATFMAKPIEGEPGSAMHIHHSVVDSASKLNIFSDAKGGETEAFLHFIAGMQTHLPAAVALLAPYVNSYRRYVPDFAAPINLEWGRDNRTTGLRVPISGPEARRLENRLAGMDCNPYLGLAASLACGYLGLKERKMPQPECTGDAYMSETDLPYNLGDALDLLEEDAALRDVLGPEFCGVYDSVKRNEYKEFLQVISPWEREHLLLNV”, the “soluble on expression in E. coli” value is listed as “not soluble”.
